In patent publication US11779606B2, “Peptides and combination of peptides of non-canonical origin for use in immunotherapy against different types of cancers” (Immatics Biotechnologies GmbH, priority 2018, dated 2023):

Target: HLA-A*02:01 (Homo sapiens, UniProt P04439, D140Y/D185E/D98H/E176V/E277Q/G131W/G231S/I119V/I121R/I166T/I218V/L300P/L318F/N151K/N90K/P208A/P217A/Q86G/Q94H/R138H/R169H/T345S)
Test: MHC binding assay (UV-ligand exchange, β2m ELISA)
Settings: MHC class I binding score; peptide exchange yield, binding to HLA-A*02:01, UV-ligand exchange with β2m ELISA
Excerpt: Candidate peptides for T cell based therapies according to the present invention were further tested for their MHC binding capacity (affinity).
The individual peptide-MHC complexes were produced by UV-ligand exchange, where a UV-sensitive peptide is cleaved upon UV-irradiation and exchanged with the peptide of interest as analyzed. Only peptide candidates that can effectively bind and stabilize the peptide-receptive MHC molecules prevent dissociation of the MHC complexes. To determine the yield of the exchange reaction, an ELISA was performed based on the detection of the light chain (β2m) of stabilized MHC complexes. The assay was performed as generally described in Rodenko et al. (Rodenko et al., 2006).
96 well MAXISorp plates (NUNC) were coated over night with 2 ug/ml streptavidin in PBS at room temperature, washed 4× and blocked for 1h at 37° C. in 2% BSA containing blocking buffer. Refolded HLA-A*02:01/MLA-001 monomers served as standards, covering the range of 15-500 ng/ml. Peptide-MHC monomers of the UV-exchange reaction were diluted 100 fold in blocking buffer. Samples were incubated for 1 h at 37° C., washed four times, incubated with 2 ug/ml HRP conjugated anti-β2m for 1h at 37° C., washed again and detected with TMB solution that is stopped with […]. Absorption was measured at 450 nm. Candidate peptides that show a high exchange yield (preferably higher than 50%, most preferred higher than 75%) are generally preferred for a generation and production of antibodies or fragments thereof, and/or T cell receptors or fragments thereof, as they show sufficient avidity to the MHC molecules and prevent dissociation of the MHC complexes.

Question: How did the Peptide exchange turn out when “44 (WLIPRQLAAA; listed as Homo sapiens) [compound 44]” was run?
Answer: ++++ (≥75% = ++++)

Question: “67 (ALKELMGPA; listed as Homo sapiens) [compound 67]” was tested. Which Peptide exchange did it give?
Answer: ++ (≥20% = ++)

Question: For “71 (WLMPVMPAL; listed as Homo sapiens) [compound 71]”, which Peptide exchange is on record?
Answer: ++++ (≥75% = ++++)

Question: For “73 (STTIINLIL; listed as Homo sapiens) [compound 73]”, which Peptide exchange is on record?
Answer: ++ (≥20% = ++)

Question: How did the Peptide exchange turn out when “8 (ILQSLVPAA; listed as Homo sapiens) [compound 8]” was run?
Answer: ++++ (≥75% = ++++)

Question: With “45 (ALYHQSPLL; listed as Homo sapiens) [compound 45]” as the substance, how does the Peptide exchange read?
Answer: ++++ (≥75% = ++++)

Question: “30 (LLRLTLLPL; listed as Homo sapiens) [compound 30]” was tested. Which Peptide exchange did it give?
Answer: ++ (≥20% = ++)

Question: How did the Peptide exchange turn out when “98 (SLMEVTHDL; listed as Homo sapiens) [compound 98]” was run?
Answer: ++++ (≥75% = ++++)

Question: “53 (TISISLSSV; listed as Homo sapiens) [compound 53]” was tested. Which Peptide exchange did it give?
Answer: ++++ (≥75% = ++++)

Question: “5 (LVWEVVESV; listed as Homo sapiens) [compound 5]” was tested. Which Peptide exchange did it give?
Answer: ++++ (≥75% = ++++)

Question: “41 (LMASEGIWESSL; listed as Homo sapiens) [compound 41]” was tested. Which Peptide exchange did it give?
Answer: +++ (≥50 = +++)

Question: With “42 (WITPVIPAL; listed as Homo sapiens) [compound 42]” as the substance, how does the Peptide exchange read?
Answer: ++++ (≥75% = ++++)

Question: With “11 (ALLPHAPEAV; listed as Homo sapiens) [compound 11]” as the substance, how does the Peptide exchange read?
Answer: +++ (≥50 = +++)

Question: Which Peptide exchange does the source give for “9 (FLQEGDLISV; listed as Homo sapiens) [compound 9]” here?
Answer: ++++ (≥75% = ++++)

Question: Which Peptide exchange does the source give for “24 (TLTSLNILL; listed as Homo sapiens) [compound 24]” here?
Answer: ++++ (≥75% = ++++)

Question: For “22 (SLYDVPVGA; listed as Homo sapiens) [compound 22]”, which Peptide exchange is on record?
Answer: ++++ (≥75% = ++++)

Question: For “23 (GLEVLDALL; listed as Homo sapiens) [compound 23]”, which Peptide exchange is on record?
Answer: ++ (≥20% = ++)

Question: Which Peptide exchange does the source give for “28 (SQLEKPETA; listed as Homo sapiens) [compound 28]” here?
Answer: +++ (≥50 = +++)

Question: How did the Peptide exchange turn out when “66 (ILNELLNSI; listed as Homo sapiens) [compound 66]” was run?
Answer: ++++ (≥75% = ++++)

Question: For “15 (NLVMPLLHI; listed as Homo sapiens) [compound 15]”, which Peptide exchange is on record?
Answer: ++ (≥20% = ++)

Question: How did the Peptide exchange turn out when “27 (IAAGVPNTDA; listed as Homo sapiens) [compound 27]” was run?
Answer: ++ (≥20% = ++)

Question: Which Peptide exchange does the source give for “43 (AIWSTILIA; listed as Homo sapiens) [compound 43]” here?
Answer: ++ (≥20% = ++)

Question: For “32 (VLSVSAVLGA; listed as Homo sapiens) [compound 32]”, which Peptide exchange is on record?
Answer: +++ (≥50 = +++)

Question: “100 (SLGPPPVGV; listed as Homo sapiens) [compound 100]” was tested. Which Peptide exchange did it give?
Answer: ++++ (≥75% = ++++)

Question: “20 (VLISLPGKV; listed as Homo sapiens) [compound 20]” was tested. Which Peptide exchange did it give?
Answer: ++ (≥20% = ++)

Question: With “61 (VLPWQPLLL; listed as Homo sapiens) [compound 61]” as the substance, how does the Peptide exchange read?
Answer: ++ (≥20% = ++)

Question: For “25 (ISVLNLSAI; listed as Homo sapiens) [compound 25]”, which Peptide exchange is on record?
Answer: ++ (≥20% = ++)

Question: For “69 (LLCPVVLQL; listed as Homo sapiens) [compound 69]”, which Peptide exchange is on record?
Answer: ++++ (≥75% = ++++)

Question: Which Peptide exchange does the source give for “17 (VLWDLRPSSLI; listed as Homo sapiens) [compound 17]” here?
Answer: ++++ (≥75% = ++++)

Question: With “56 (IITNLIVNI; listed as Homo sapiens) [compound 56]” as the substance, how does the Peptide exchange read?
Answer: +++ (≥50 = +++)

Question: Which Peptide exchange does the source give for “52 (LAFVSHVLI; listed as Homo sapiens) [compound 52]” here?
Answer: ++ (≥20% = ++)

Question: With “34 (LLNVEPAGA; listed as Homo sapiens) [compound 34]” as the substance, how does the Peptide exchange read?
Answer: ++++ (≥75% = ++++)

Question: How did the Peptide exchange turn out when “54 (GLSPDQVFL; listed as Homo sapiens) [compound 54]” was run?
Answer: ++++ (≥75% = ++++)

Question: How did the Peptide exchange turn out when “14 (LLIEVSEEL; listed as Homo sapiens) [compound 14]” was run?
Answer: ++++ (≥75% = ++++)

Question: How did the Peptide exchange turn out when “70 (LLLQIEPAA; listed as Homo sapiens) [compound 70]” was run?
Answer: ++++ (≥75% = ++++)

Question: Which Peptide exchange does the source give for “55 (MVQQEKLFV; listed as Homo sapiens) [compound 55]” here?
Answer: +++ (≥50 = +++)

Question: “35 (VLLNSNYPV; listed as Homo sapiens) [compound 35]” was tested. Which Peptide exchange did it give?
Answer: ++++ (≥75% = ++++)

Question: With “16 (ALLDAEQSPVAL; listed as Homo sapiens) [compound 16]” as the substance, how does the Peptide exchange read?
Answer: ++++ (≥75% = ++++)

Question: For “64 (LLLALRLSL; listed as Homo sapiens) [compound 64]”, which Peptide exchange is on record?
Answer: + (≥10% = +)

Question: How did the Peptide exchange turn out when “21 (FVFISPSFL; listed as Homo sapiens) [compound 21]” was run?
Answer: +++ (≥50 = +++)

Question: With “60 (LLLATLENL; listed as Homo sapiens) [compound 60]” as the substance, how does the Peptide exchange read?
Answer: ++++ (≥75% = ++++)

Question: How did the Peptide exchange turn out when “99 (ALMDGSESRFFV; listed as Homo sapiens) [compound 99]” was run?
Answer: ++++ (≥75% = ++++)

Question: “97 (GLIDDKGTIKL; listed as Homo sapiens) [compound 97]” was tested. Which Peptide exchange did it give?
Answer: ++++ (≥75% = ++++)

Question: Which Peptide exchange does the source give for “10 (SLLDKLSGI; listed as Homo sapiens) [compound 10]” here?
Answer: ++++ (≥75% = ++++)

Question: Which Peptide exchange does the source give for “58 (MIISHRALEL; listed as Homo sapiens) [compound 58]” here?
Answer: ++ (≥20% = ++)

Question: For “12 (HLDSMNVSI; listed as Homo sapiens) [compound 12]”, which Peptide exchange is on record?
Answer: ++++ (≥75% = ++++)

Question: Which Peptide exchange does the source give for “39 (YIYEDEVRL; listed as Homo sapiens) [compound 39]” here?
Answer: ++++ (≥75% = ++++)

Question: Which Peptide exchange does the source give for “57 (YVLMTSLLL; listed as Homo sapiens) [compound 57]” here?
Answer: ++++ (≥75% = ++++)

Question: How did the Peptide exchange turn out when “63 (LSFKRSLSI; listed as Homo sapiens) [compound 63]” was run?
Answer: ++ (≥20% = ++)

Question: Which Peptide exchange does the source give for “59 (LAASTTFLGV; listed as Homo sapiens) [compound 59]” here?
Answer: ++++ (≥75% = ++++)

Question: “62 (SLLGKPGLTI; listed as Homo sapiens) [compound 62]” was tested. Which Peptide exchange did it give?
Answer: ++++ (≥75% = ++++)
